Reference: patent US12365710B2, “HMGB1 protein derivatives for the removal of biofilms” (RESEARCH INSTITUTE AT NATIONWIDE CHILDREN'S HOSPITAL, priority 2018, dated 2025)

B1: B-linker Box: HMGB1 B Box with N- and C-terminal linker (80-179; 80 to 176 in b258), 97 amino acid (protein, UniProt P09429 80-179, looked up, fragment)
chain: PPKGETKKKFKDPNAPKRPPSAFFLFCSEYRPKIKGEHPGLSIGDVAKKLGEMWNNTAADDKQPYEKKAAKLKEKYEKDIAAYRAKGKPDAAKKGVVKAE
B2: mHMGB1: engineered C45S variant of full length rHMGB1 that mimics the reduced form of HMGB1 (protein, UniProt P09429 1-215, looked up, variant C45S)
chain: MGKGDPKKPRGKMSSYAFFVQTCREEHKKKHPDASVNFSEFSKKSSERWKTMSAKEKGKFEDMAKADKARYEREMKTYIPPKGETKKKFKDPNAPKRPPSAFFLFCSEYRPKIKGEHPGLSIGDVAKKLGEMWNNTAADDKQPYEKKAAKLKEKYEKDIAAYRAKGKPDAAKKGVVKAEKSKKKKEEEEDEEDEEDEEEEEDEEDEDEEEDDDDE
modifications: full-length
notes: engineered C45S variant of full length rHMGB1 that mimics the reduced form of HMGB1

Tested on: Klebsiella pneumoniae biofilms
Assay: in vitro disruption of pre-formed biofilms, LIVE/DEAD, CLSM and COMSTAT
Format: cell-based
Conditions: for disruption of established K. pneumoniae biofilms (average thickness, biomass): 200 nM added at 24 h, 16 h incubation; for % reduction in average thickness (AT), mean±SE / % reduction in biomass (BM), mean±SE: 200 nM added to pre-formed biofilms at 24 h, read at 40 h, vs untreated KP biofilms
Description: FIGS. 5A-5E: Anti-biofilm effect of HMGB1 variants on high priority bacterial pathogens. Indicated HMGB1 variants or antibodies against DNABII proteins (α-1HFEc 1gG, 1 μM) were added at 24 h to the respective preformed bacterial biofilms, in vitro. After 16 h of Incubation, biofilms were stained with LIVE/DEAD®, then visualized via confocal laser scanning microscopy. Images were analyzed by COMSTAT to calculate average thickness and comparison to control was plotted. (FIG. 5A) Full-length HMGB1 isoforms (200 nM unless otherwise indicated) added to UPEC, B. cenocepacia, NTHI, or ESKAPE pathogens. 800 nM rHMGB1 and 200 nM mHMGB1 were added for S. aureus (ESKAPE). 800 nM rHMGB1, 800 nM mHMGB1, or 3.3 μM of α-1HFEc 1gG were added for E. faecium (ESKAPE) and were incubated for 1 h as opposed to 16 h to avoid potential degradation by E. faecium proteases. (FIG. 5B) Representative images of UPEC biofilms incubated with increasing concentrations of rHMGB1. (FIG. 5C) Individual domains of HMGB1 (200 nM) were tested for anti-biofilm activity as above (dotted line indicates control values). Bars represent the SEM. Statistical significance compared to control was assessed with unpaired t-tests, *P<0.05. […] (FIGS. 5D-5E) HMGB1 and variants disrupt preformed Klebsiella pneumoniae biofilms. rHMGB1, HMGB1 C45S (mHMGB1), bovine HMGB1 (bHMGB1), B box, B Box C106S (mB Box), A Box, and A+B Box were added (200 nM) at 24 h to preformed K. pneumoniae biofilms. After 16 h of incubation, biofilms were stained with LIVE/DEAD®, then visualized via confocal laser scanning microscopy. Images were analyzed by COMSTAT to calculate average thickness and total biomass. Error bars represent the SEM. ***P<0.0001; ns=not significant.
An in vitro biofilm assay was used to test the effect of HMGB1 and its variants on established bacterial biofilms. Applicant expressed, (in E. coli) and purified >95% human recombinant full length HMGB1 (rHMGB1; 1-215), a C45S mutated variant (mHMGB1) and the HMGB1 domains A Box (1-89), A+B Boxes (1-176), B Box (80-179), and B Box C106S (mB Box) (FIG. 3). […] To evaluate the effect of HMGB1 and its variants as well as a commercially available native bovine HMGB1 (used as a control) on established bacterial biofilms, each protein was added (at 200 nM), to pre-formed Klebsiella pneumoniae biofilms after 24 h of growth. After a 16 h incubation (40 h total biofilm growth), the biofilms were stained with LIVE/DEAD® and analyzed using confocal laser scanning microscopy (CLSM) and COMSTAT analysis to calculate the average thickness and total biomass of the biofilms. […] The results of this study lead to a noteworthy observation that a single dose of these non-antimicrobial compounds was able to disrupt recalcitrant biofilms. In addition, the HMGB1 variants have disrupted every bacterial species tested to date, which includes Uropathogenic E. coli, Burkholderia cenocepacia, Nontypeable Haemophilus influenzae (FIG. 6). A single dose at this concentration released of bacteria from their protective shield makes them vulnerable to clearance by antibiotics and the immune system.
Klebsiella pneumoniae (KP), a common cause of nosocomial infections was used for all BBs disruption assays. Human recombinant full length HMGB1 (rHMGB1; 1-215), a C45S mutation variant (mHMGB1) and the HMGB1 domains A Box (1-89), B Box (90-176), AB Boxes (1-176), B-linker Box (80-179), and B-linker Box C106S were expressed (in E. coli) and purified to >95%. To evaluate the effect of rHMGB1 and the various domains on established BBs, each protein species (200 nM) was added to pre-formed BBs at 24 h. At 40 h the BBs were washed, stained with LIVE/DEAD®, visualized via confocal laser scanning microscopy and images were analyzed by COMSTAT to calculate average thickness and biomass.

Molecule | disruption of established K. pneumoniae biofilms (average thickness, biomass) | % reduction in average thickness (AT), mean±SE | % reduction in biomass (BM), mean±SE
rHMGB1: tagless human recombinant full length HMGB1 (1-215) expressed in E. coli | significantly disrupt | 44%±0.33 | 61%±0.01
B1 | retained full anti-biofilm activity | 77%±0.03 | 67%±0.01
B2 |  | 75%±0.04 | 80%±0.01
